Data: patent US20240327815A1 (Zymeworks, published 2024)

B1: REGN10987 (Imdevimab) (antibody, V domains shown)
VH: QVQLVESGGGVVQPGRSLRLSCAASGFTFSNYAMYWVRQAPGKGLEWVAVISYDGSNKYYADSVKGRFTISRDNSKNTLYLQMNSLRTEDTAVYYCASGSDYGDYLLVYWGQGTLVTVSS
VL: QSALTQPASVSGSPGQSITISCTGTSSDVGGYNYVSWYQQHPGKAPKLMIYDVSKRPSGVSNRFSGSKSGNTASLTISGLQSEDEADYYCNSLTSISTWVFGGGTKLTVLR
B2: Etesevimab (antibody, V domains shown)
VH: EVQLVESGGGLVQPGGSLRLSCAASGFTVSSNYMSWVRQAPGKGLEWVSVIYSGGSTFYADSVKGRFTISRDNSMNTLFLQMNSLRAEDTAVYYCARVLPMYGDYLDYWGQGTLVTVSS
VL: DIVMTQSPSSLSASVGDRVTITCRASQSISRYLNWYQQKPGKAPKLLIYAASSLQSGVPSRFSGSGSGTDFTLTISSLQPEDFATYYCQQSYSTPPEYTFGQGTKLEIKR
B3: Bamlanivimab (antibody, V domains shown)
VH: QVQLVQSGAEVKKPGSSVKVSCKASGGTFSNYAISWVRQAPGQGLEWMGRIIPILGIANYAQKFQGRVTITADKSTSTAYMELSSLRSEDTAVYYCARGYYEARHYYYYYAMDVWGQGTAVTVSS
VL: not shown
B4: REGN10933 (Casirivimab) (antibody, V domains shown)
VH: QVQLVESGGGLVKPGGSLRLSCAASGFTFSDYYMSWIRQAPGKGLEWVSYITYSGSTIYYADSVKGRFTISRDNAKSSLYLQMNSLRAEDTAVYYCARDRGTTMVPFDYWGQGTLVTVSS
VL: DIQMTQSPSSLSASVGDRVTITCQASQDITNYLNWYQQKPGKAPKLLIYAASNLETGVPSRFSGSGSGTDFTFTISGLQPEDIATYYCQQYDNLPLTFGGGTKVEIKR

Tests used:
[1] = molecular target: T1, full length wild type SARS-CoV-2 spike glycoprotein on pseudotyped lentivirus (SARS-CoV-2, UniProt P0DTC2 14-1273); experiment: cell-based or functional assay
[2] = molecular target: T1, full length wild type SARS-CoV-2 spike …; experiment: cell-based or functional assay; remark: listed apart in the source
[3] = molecular target: WT SARS-CoV-2 spike protein, plate-coated (MSD V-Plex) (SARS-CoV-2, UniProt P0DTC2 14-1208); experiment: MSD competition vs labelled ACE2

| Binder | Pseudovirus Neutralization (IC50, nM) [1] [nM] | %-inhibition EC50 (M), pseudovirus neutralization [2] [M] | Bmax (% inhibition) [2] [%] | RLU EC50 (M), pseudovirus neutralization [2] [M] | IC50 [3] [nM] |
| --- | --- | --- | --- | --- | --- |
| B1 | 4.76 | 2.9e-09 | 116 | 2.9e-09 | – |
| B2 | – | – | – | – | 0.51 |
| B3 | 2.29 | – | 100 | – | – |
| B4 | 0.05 | 1.1e-10 | – | 1e-10 | – |
